assay: soluble on expression in E. coli; label from the status in PepcDB or PDB records

| Sequence | soluble on expression in E. coli |
| --- | --- |
| MGSDKIHHHHHHMTASLTALRAFDAAARNGSFRAAAADLNVTPTAISHHIRGLEDQLGVKLFRREGRDVALTDDGRRLADATNQAFGLLDNAVQSLRRSARKAVRVSAGPIFTARWLMPRISDFWEAHREIELEVVPAIHPGARDRENVDIVIRWDRIADMGRDAVKLLELSPVAIASEDFVAKRGPIDHPKDLLILPLLHQRNHWGWLDWFEAMGVSLADPLYGPIFEDANVLLRGAAEGQGAIIGWLPLIDQDLAEKRVVRVFDERIAPTHGYFVDVQHNSRARVEVRAVEDWLISQS | not soluble |
| DCYCRIPACIAGEAAYGTCIYQGALWAFCC | soluble |
| MDRGTVFTFSPKGDIIELPVGATALDFAFMVHTQVGCKCVGAKVNGRMVTIDHKLKSGDKVEIITSKNSKGPSLEHHHHHH | not soluble |
| MLLGYCGSGYYGMQYNPPHKTIEGEILTKLFDVGAISEENSLAPKKNSFMAAARTDKGVHAMLNLLSLKITLREDTVAKLNAALPPEIRVWGIQPVNKKFNARSACDSRWYQYLIPEFILIGPPRSSLLHRNVGGCYREDGSQEVWDTFLEQTRGRFSGDELCRLQDTAQKLSESDPLVQDYVGLLSGTLSGYCLSPSKLDAFEAAMQEYVGTHNFHNFTTGKLWGDPSAQRHIKKVVVSQASPGWICVRIHGQSFMLHQIRRMVALAVLAARCQLPPNIVRNYFNAGPRKYIPRAPAQGLLLEGPVFDGYNTKLRNLLYCEIRPDDITLERMCRFRERQICTAIAHEETQRHVFCHFVRQMNRLATPLI | not soluble |
| MGSDKIHHHHHHMDITPFLDKKSKTPLYEQLYTFFKQEISHARITKGTRLPSKRRLSSLLDVSTATIERAYEQLTAEGYVKSKPKIGWFAAEVEPGFPTAPDHFQQSVQPGLHQKNAPAIDFHQGSVDPTLFPFNAWRKSIVKSLDRYSGSFHTSGDPQGEYELRHMIARFVRLSRGVNCEPGQIIIGAGTTVLLQNLCLSLKPGTKIGFEEPGFHRSRRMFEANHMDVTPICSDAEGVLPDELYRQNPYLMYTTPSHQFPIGTIMTITRRQELLAWAAETNSFIIEDDYDGEFRYSGHPIPSLQGLDPNGRVIYLGTFSKSLLPSLRLSFMIVPPELMEPIQNNVQLMKQTVSAHSQLALADFIETGEWQKHINRMRSLYRKKHAVLLEAIRSELGNTVEILGKNSGLHILLRLLFPASEEEAIQAAADHGVTLYPVSPSYIEQTPFTSVLIGYGGLSEEDIRLGIQKLKTAWAPLISSY | not soluble |
| MGSDKIHHHHHHMSVLTVTGLSQRFLDKVLYQDASFQVNIEDHLGVIGQNGVGKSTLIKILTGAQTPDAGKIVWQKHLHVGYLDQYANLVPGQTVIEFLRTAFSDLYRKEAKMNQIYADYANHPDDDLLAKAGELQQELEAGDFYDLETTIQTVAEGLGITAMGMDHPVEALSGGQRSKLILAKLLLEKPDMLLLDEPTNYLDVSHIAWLTDWLQNFEGAFIVISHDFDFLENVTNAVLDIEFGQITKYTGTLKQAMRQKEADHETYLKAFAKQQETIKKTEAFIRKFKAGTRATMAKSREKQLARMDKLTPPGTRSKAHLAFPYAPVNRQILVDVNDLVVGYDKPLLQPMNFSVAKDQIIAFEGFNGVGKSTLLKTLLGLLPAISGNVEIADNVVFGYYEQELHWDQPKQSPVQYLEQRFPALTQKTVRQVLSRTALTSEEANNPLTMLSGGEQAKVKLADLMLQTTNILVMDEPTNHLDDDTKNALREGLQQYPGAVLLVSHEAGFYDSSWVDTVVNVEQLQVKA | not soluble |
| MGSDKIHHHHHHMSGYKVFIVDDEADIALILKLQLEDAGYRTMRARDGIEALDALERESFDLVLLDIRMPRMDGIEVLERIRDRWPDLVVIMMTAHGSEDIAVEAMKKGAVDYISKPFSSDDMKKRVERAIQFNRTRLENERLQRVLDEERRKMGAILRGMADLLVAVDREGRIITINRAAEERFGIAADGVQNQPVELLLKTDIPGERLPCRVVLATGDPCLDVTYAVQAGGGMIPVLSSATPLKGAGGEMMGCVEIIRDISTLKALEREREDFVSMLSHDLKTPITAVVGSIDLVREGRIGPVNAEQRSYLDSAMESCAEMVDMIDTLLDVHRFEAGRMVMAARLEDLGPLMARTLGRFDSVARRAGIALVLTLPDYPLALSLDRNQFARLMGNLIANAIKFTQEGGEIEVSARLLNDPAELVGRIPRESYPDVPLPPLNPHLLITVRDTGVGIPADSLVSIFDRFVQARNRRLGKSTGTGLGLAFCRKVMDAHHGYIWAESVEGEGSSFNMLFPLTNEAYAATGG | not soluble |
| MAHHHHHHMDDRDAELDIDEDGIFTCEEVNALTSAMWKAEGLTRVPRSRRHHRQAPPQQRTSAAAVDSLQPGPLAASTTTPGGGSVTDVTLQPLLNTTGEDGGHRSLGGDIRGLPSSFSNAPLFASATTTAAGLSSTSSPQPTSQALHHHHNDVDRQLGGNSNTSGRRMAGGGGSVGGEGSRSSSSVYEVLIQRVLAMDTASDIWSLGVLLYGMCADTADAQQQEEQQQHQASASTTTPTLNPPHATAAGSSPVRAHEGVAGTLPPAMPTCTCASRLAQRAFAALLGDLYDLAVTGVPSGDRGNNGWSCDGVDVEQLDEAADDHLRWPRSCALEEEVMQAIGEAGYTHVFASVLASMLSPVAARRPSAGDIVNQLRLVTTGAPATLASNIMRGGGGGLADADDEYSVARQSPPPRIQHSGGASDATSSVMLHEQTACMALRQR | not soluble |
| MLILGIDTSTKICTCSIFDSENGVIAETSLSVKKNHSNIVMPIIDNLFKISDLTINDIDKIAVAIGPGSFTGVRIALGIAKGLAMALNKPLIAINELDILEAIASGNENEIIPLIDARKERVYYKYQNKYVDDYLINLTSNFDKNKKYIFVGDGAINYKNILKDNLGENAIILPMYNSFPRASILCELALNKEEANIYTLEPEYISKSRAEKHFLEHHHHHH | soluble |
| MNKSESRYYATAARMDEAFLTLLAKKDFEYITVKEICEVAGVNRSTFYLHYETMSDLLSESISRINEQFLAYMEKDSDAFSAKLRNCPRDELYLITPDYLTPYLSYIKNNKRLFRTATENAAVLGMDKSYDRMFRHVFTPILDRYGVLQQDRPYIMAFYIRGLMAIISEWLKNDCTDSITYVTGVIQQCVKMPQSETMNAV | not soluble |
| MAHHHHHHMRPSLPKKVLAWIASYPSYFIVDDPTEKDPSKARIRRASDRQPLDVALELYRWIPEEGISEAALLTKLSEVHRDYVKRIGLRHIVDSLSEWLSFTEAPGGGGGGAEGEEKVLLLRRLQTEVELERAIHTEESKLASGDENSLPVQIEDAEMERRWPKLKYEGTMSQQQASVARAQQRRGRGDI | soluble |
| MDGQADGMFIDRAEDARKQEITEQYLNFLDNQADTFHYRQKIVKMMNDGESRLVMNLDEIREILPERAEGLLTQSVLEMNCLQSALQMAINRSDVQAVVKTGFHVGFEGTFGERHVNPRTLKSSYLGNLVCCEGIVTKCSTVRQKLLTSVHYCPATNKVLEKKFADFTMLDTAVTNNNYPTEDENKNPLETEFGHSVYKDHQTFTIQELPESAPAGQLPRAVDCVADLDLADRVKPGDRVRIIGVFRVLPNKQNGVSSGSFRSIIIINHIQMLSKEVIPNFEPQDVKDVRKISKSRNPFELLARSLAPSICGHEETKKALLCLLLGGMEKILNNGSRLRGDINVLLIGDPSVAKSQLLRYVLRMAPRAITTTGRGSSGVGLTAAVTTDPDSGERRLEAGAMVLADRGVVCIDEFDKMSDIDRTAIHEVMEQGRVTISKAGIHAKLNARCSVLAAANPVYGRYNPFKSPMENIGMQDSLLSRFDLIFVLLDEHDADKDANVAEHVLKLHTYRTQGEADGTVLPMGGGVETISTINMETKKASSSIYEENTQWAGIQDTKILTMDFMRKYIHLARSVQPKLTDEATEYISEVYADIRSFDITKTDQERTMPVTARQLETLIRLSTAIAKARFSKKVEREDTEKAYNLLHFACFKEKPKARQEYEKKKRAPRIDGDDDEDQSDNEDMATSEEPQSSSVPTAATPRRGVRRRAEDDDSQDSMMDTTIGESQPTAKKARTGPAAIGVDRYKELRKYVRKAFDDIGSTDDMVELQIITDSVQTQAGSHKFTEDELKAGYEQLENDNAAMIAEDKITLI | not soluble |
| MSLSSDSGNSSGKTTIEWWNITTTEPAKKLWAQRAKEFEAAHPDVKIKIVTLENEAYKSKMTAQTASGKLPDIYHTWGGGVLEQQIDAGLVEDLTDRVSSWTDTYVPAALAAYRFDSRTYAVPFDIGAVGFWYNKALFKQAGIDTPPTTWSGFLDAVRSLKSAGITPIALAGKEKWPGMYYWAYLSMRVAGLDAMHKAATDADFTGDGFVKAGQHLKDLVALQPFQKGFLGAGYSTPTGEAAAMGNGKAAMELMGQWAPVVEKDAGKGLGKDLGFFSFPAVEGGKGALTEVFGGGGGHAVRKGAPEAAVEFLKFFGEKEFAGKLVKETGLIPVSKDARGALTDPNLTAVSDALNAATGFQLYLDQAYAPAVGQEINDSVAALVAGSKSPQQVTRSVTQVAKSEKSEGHHHHHH | not soluble |
| MPMYKLTPTFPPNFEVHPKIACYPVGSYHNPSFGGVGPSDAVQVESDPRKALEHKQLSLIEQLKAQTEELKKLLVSLGEAGKAERSAQKPAEKAPKEPEKSAGAASSAPGVPGAPAKLDKDAKKEARKAAKAEAVKKLASGEAPPQKSAKKTVNSTPWTVQDDRKTWETNLTLTVNLPTSLVAYEPQEQLKNATLTVRDVDLPWARALAKVGASRGVSFEGEVKNQTKEKKSSLKVVKGPAPSLQLEKTTVKSLQTIWKLLGSSLGLFSRRPQQVLSASHQAIWLGKAEQILAGSCDQSFVTREASQFLARFDSLSSQWEVCVADIVFRSLLNLGEHLPNNVELWAKKIDALIV | soluble |
| SLLLVIDVGNTNTVLGVYHDGKLEYHWRIETSRHKTEDEFGMILRSLFDHSGLMFEQIDGIIISSVVPPIMFALERMCTKYFHIEPQIVGPGMKTGLNIKYDNPKEVGADRIVNAVAAIHLYGNPLIVVDFGTATTYCYIDENKQYMGGAIAPGITISTEALYSRAAKLPRIEITRPDNIIGKNTVSAMQSGILFGYVGQVEGIVKRMKWQAKQKQKVIATGGLAPLIANESDCIDIVDPFLTLKGLELIYERNRVGSV | soluble |
| NAIMDLQTRNTRGLSTLVVRDIGELMMAGDMAVIERYVADVRGKGAVLDLRIYDAAGRPAGKKQDAPDGEVQAALTSGATAEKRHKVDGRHVLSFIVPLANEVRCQSCHEQGARFNGAMLLTTSLEEGYAGARN | soluble |
| MSQKTEQDDIPLADDDDTVTIISGGKTPRAAQPLPKEEPPEDPEEKARMITQVLELQNTLDDLSQRVESVKEESLKLRSENQVLGQYIQNLMSSSSVFQSSQPSRPKQ | soluble |
| LYRHFAHRPDDLYRLEWREYETLLARIFQSQGFDVELGPGRGDEGVDIRLIQRDPIGDIVTLVQAKKYGAGNKIDQTQVAALYGIQQSEDANFSMFVTTSAYAPVAKRFSAREKV | not soluble |
| MGSDKIHHHHHHMAATFLDIAITPDVMDVQHEMGSDSLWQTPRSRRQADRFGDSEAGMIATRDSFYLATVSQSGWPYIQHRGGPPGFLHLLDDITLAMADFGGNRQYITTGNLRGSDRACLFLMDYPRRARLKIYATVEVLAAEDHPQLLAQVAPANYRARIERLFLFHLQAFDWNCPQHITPRYSAQQVAEYSQNLQQRIHDLEQENQRLQQQLARRGE | not soluble |
| MAHHHHHHMRISCSCLNKSLVSTAIPSDIIERAGTNLPGIPHKYRVCRAYRQWLKLAVLCPHSLLCELNEHAQMNERFVIIVRQKFREGEELRDPEEIAVAVQSCERSLAMFRFLAADGARRRFPEAKPRLNLHKMGFMEMAKINYTQMAKEYWNTYIMRRW | not soluble |
| MGSDKIHHHHHHMNAVQVLNFQQNSVRTVADNKGELWFLANDVCEILGYTNPRRTVDLHCKSRGVTKRYTPTTSGEQEMTYINEPNLYRLIIKSRKPAAEAFEEWVMETVLPAIRKTGGCQVGPKTTADDRTGLRQAVAALVGRKGIDYSSAYSMIHQRFNVESIEDLPAGKLPEAVAYVHALTLHTGLTGEVLDAPPKAEPKLPIDGNSLADIAAMVYYGTWMIESGKDISAPLKQLGCRQAVTMWTVWHETRPILKRSAAALEVLRGYADKDASDRIAACLEGIYGKATVR | not soluble |

— the DeepSol protein solubility set
